# Paper PMC6943137, “A novel 5′-hydroxyl dinucleotide hydrolase activity for the DXO/Rai1 family of enzymes”
# T1: DXO (mouse, UniProt O70348 1-397)
# T1 sequence: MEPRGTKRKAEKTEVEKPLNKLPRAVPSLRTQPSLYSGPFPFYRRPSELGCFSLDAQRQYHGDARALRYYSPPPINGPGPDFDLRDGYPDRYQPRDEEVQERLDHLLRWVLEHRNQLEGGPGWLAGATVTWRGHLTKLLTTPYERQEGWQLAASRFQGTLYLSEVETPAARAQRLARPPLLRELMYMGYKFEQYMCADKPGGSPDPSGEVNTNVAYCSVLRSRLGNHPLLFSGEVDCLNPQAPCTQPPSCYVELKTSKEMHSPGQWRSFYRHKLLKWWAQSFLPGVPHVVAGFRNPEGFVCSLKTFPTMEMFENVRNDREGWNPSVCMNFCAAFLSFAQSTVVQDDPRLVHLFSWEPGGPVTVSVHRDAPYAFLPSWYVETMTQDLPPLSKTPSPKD
# B1: 5'-OH U(S)6 RNA (XNA)
# RNA: UUUUUU
# modifications: phosphorothioate backbone; 5'-hydroxyl (5'-PO4 removed by CIP)
# Target: T1, DXO
# Experiment: X-ray crystallography, 2.0 A; Ca2+ (one ion); RNA occupancy ~80%, no hydrolysis in crystal; Crystal structure; crystallization buffer not in the material. Nuclease assays (turnover, not listed): 10 mM Tris pH 7.5, 50 mM KOAc, 2 mM Mg(OAc)2, 2 mM MnCl2, 1 mM DTT, 0.1 mM spermine
# Conditions: protein: recombinant; tags: His-tag (pET28a); single strand
binder,measurement,value
B1,binding result,binds
